The values below come from article doi:10.1101/2021.02.27.433207.

For one data set, the system named is ParA2 (Vibrio cholerae). The experiment in a line: EMSA. A general note: A gel shift assay detects complexes by their altered migration in electrophoresis.
The target in data set [1] is Vibrio cholerae chromosome 2 ParA2 (Vibrio cholerae). The experiment in a line: SEC-MALS. For orientation: Size exclusion chromatography separates by hydrodynamic size, large species first.

Cy3-62-bp DNA: the dissociation constant Kd in the data set with ParA2 (Vibrio cholerae) is 1000 nM. This lies in the single-digit micromolar range.
The substance “Vibrio cholerae chromosome 2 ParA2 (enzyme)” came in with a stoichiometry N in data set [1] of 2.

For orientation: Kd means the free concentration of one partner at which half of the binding sites on the other are occupied at equilibrium, for simple one-to-one binding. The low end stands for higher affinity, the high end for lower affinity. Usually stoichiometry N stands for a count of units in the complex or per binding partner.
